# Measurements reported in the supplement of paper PMC7877785.
# ± gives the uncertainty stated by the source.
# Assay: self-splicing fitness, log relative to wild type (ln ratio); higher = more splicing; Tetrahymena group I intron in knt gene, E. coli kanamycin selection, DiMSum; sequences stand for … in CUCUCU…GGAGGGAAAAGUUAUCAGGCAUGCACCUGGUAGCUAGUCUUUAAACCAAUAGAUUGCAUCGGUUUAAAAGGCAAGACCGUCAAAUUGCGGGAAAGGGGUCAACAGCCGUUCAGUACCAAGUCUCAGGGGAAACUUUGAGAUGGCCUUGCAAAGGGUAUGGUAAUAAGCUGACGGACAUGGUCCUAACCACGCAGCCAAGUCCUAAGUCAACAGAUCUUCUGUUGAUAUGGAUGCAGUUCACAGACUAAAUGUCGGUCGGGGAAGAUGUAUUCUUCUCAUAAGAUAUAGUCGGACCUCUCCUUAAUGGGAGCUAGCGGAUGAAGUGAUGCAACACUGGAGCCGCUGGGAACUAAUUUGUAUGCGAAAGUAUAUUGAUUAGUUUUGGAGUACUCGUGGUCG
# Method in brief: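 Six replicate transformations of E. coli BL21(DE3) with a pET-22b(+) library were grown overnight at 37°C or 30°C. The library randomised all eight P1ex-region intron nucleotides, the intron lying in the knt kanamycin-resistance gene, and plates were LB agar with or without 25 μg/mL kanamycin plus 100 μg/mL carbenicillin, 50 μM IPTG and 0.2% rhamnose. Pooled colonies were amplicon-sequenced on an Illumina HiSeq 2500, and fitness is the DiMSum error-weighted combination of wild-type-normalised replicate fold changes, kanamycin versus none.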
sequence,measurement,setting,value
UCUCAGCAAUAUUACGUAAA,self-splicing fitness (ln),30 °C,-1.82 ± 0.15
same,self-splicing fitness (ln),37 °C,-1.04 ± 0.2
UCUCAGCAAUAUUACGUACA,self-splicing fitness (ln),30 °C,-1.81 ± 0.21
same,self-splicing fitness (ln),37 °C,-0.374 ± 0.15
UCUCAGCAAUAUUACGUGAC,self-splicing fitness (ln),30 °C,-2.02 ± 0.39
same,self-splicing fitness (ln),37 °C,-1.82 ± 0.37
UCUCAGCAAUAUUACGUGUU,self-splicing fitness (ln),30 °C,-3.47 ± 0.14
same,self-splicing fitness (ln),37 °C,-2.73 ± 0.15
UCUGAGCAAUAUUACGAACG,self-splicing fitness (ln),30 °C,-2.04 ± 0.34
same,self-splicing fitness (ln),37 °C,-1.65 ± 0.38
UCUGAGCAAUAUUACGAAGU,self-splicing fitness (ln),30 °C,-2.62 ± 0.16
same,self-splicing fitness (ln),37 °C,-1.56 ± 0.19
UCUGAGCAAUAUUACGACAU,self-splicing fitness (ln),30 °C,-3.788 ± 0.034
same,self-splicing fitness (ln),37 °C,-2.73 ± 0.044
UCUGAGCAAUAUUACGAGAG,self-splicing fitness (ln),30 °C,-4.12 ± 0.26
same,self-splicing fitness (ln),37 °C,-2.69 ± 0.45
UCUGAGCAAUAUUACGAUAC,self-splicing fitness (ln),37 °C,-2.12 ± 0.25
UCUGAGCAAUAUUACGCAAC,self-splicing fitness (ln),37 °C,-2.24 ± 0.29
UCUGAGCAAUAUUACGCACC,self-splicing fitness (ln),30 °C,-3.59 ± 0.45
UCUGAGCAAUAUUACGCAUG,self-splicing fitness (ln),30 °C,-2.33 ± 0.18
same,self-splicing fitness (ln),37 °C,-1.65 ± 0.17
UCUGAGCAAUAUUACGCUUG,self-splicing fitness (ln),30 °C,-4.34 ± 0.46
same,self-splicing fitness (ln),37 °C,-2.31 ± 0.3
UCUGAGCAAUAUUACGGAGU,self-splicing fitness (ln),30 °C,-2.86 ± 0.19
same,self-splicing fitness (ln),37 °C,-2.57 ± 0.17
UCUGAGCAAUAUUACGGAUG,self-splicing fitness (ln),30 °C,-4.11 ± 0.31
same,self-splicing fitness (ln),37 °C,-2.14 ± 0.23
UCUGAGCAAUAUUACGGCUG,self-splicing fitness (ln),30 °C,-3.48 ± 0.2
same,self-splicing fitness (ln),37 °C,-2.22 ± 0.21
UCUGAGCAAUAUUACGGGCC,self-splicing fitness (ln),30 °C,-2.67 ± 0.35
UCUGAGCAAUAUUACGGGUU,self-splicing fitness (ln),30 °C,-2.32 ± 0.17
same,self-splicing fitness (ln),37 °C,-2.5 ± 0.24
UCUGAGCAAUAUUACGUAGU,self-splicing fitness (ln),30 °C,-2.3 ± 0.11
same,self-splicing fitness (ln),37 °C,-0.756 ± 0.13
UCUGAGCAAUAUUACGUCAC,self-splicing fitness (ln),37 °C,-2.32 ± 0.45
UCUGAGCAAUAUUACGUCCU,self-splicing fitness (ln),30 °C,-1.81 ± 0.39
UCUGAGCAAUAUUACGUCGG,self-splicing fitness (ln),30 °C,-0.746 ± 0.093
same,self-splicing fitness (ln),37 °C,-0.184 ± 0.12
UCUGAGCAAUAUUACGUGAA,self-splicing fitness (ln),30 °C,-2.32 ± 0.17
same,self-splicing fitness (ln),37 °C,-1.9 ± 0.27
UCUGAGCAAUAUUACGUUUG,self-splicing fitness (ln),30 °C,-4.82 ± 0.29
same,self-splicing fitness (ln),37 °C,-1.81 ± 0.15
UCUUAGCAAUAUUACGACAG,self-splicing fitness (ln),30 °C,-2.9 ± 0.24
same,self-splicing fitness (ln),37 °C,-1.56 ± 0.22
UCUUAGCAAUAUUACGACGG,self-splicing fitness (ln),30 °C,-0.955 ± 0.15
same,self-splicing fitness (ln),37 °C,-0.0318 ± 0.2
UCUUAGCAAUAUUACGACGU,self-splicing fitness (ln),30 °C,-0.316 ± 0.1
same,self-splicing fitness (ln),37 °C,-0.505 ± 0.13
UCUUAGCAAUAUUACGAGGC,self-splicing fitness (ln),30 °C,-3.01 ± 0.46
UCUUAGCAAUAUUACGCAAG,self-splicing fitness (ln),30 °C,-1.34 ± 0.2
same,self-splicing fitness (ln),37 °C,-2.48 ± 0.28
UCUUAGCAAUAUUACGCGAA,self-splicing fitness (ln),37 °C,-1.19 ± 0.3
UCUUAGCAAUAUUACGCUAG,self-splicing fitness (ln),30 °C,-2.15 ± 0.19
same,self-splicing fitness (ln),37 °C,-2.47 ± 0.28
UCUUAGCAAUAUUACGGACC,self-splicing fitness (ln),37 °C,-1.91 ± 0.28
UCUUAGCAAUAUUACGGAGC,self-splicing fitness (ln),30 °C,-3.74 ± 0.4
same,self-splicing fitness (ln),37 °C,-0.68 ± 0.14
UCUUAGCAAUAUUACGGAUG,self-splicing fitness (ln),30 °C,-3.74 ± 0.28
same,self-splicing fitness (ln),37 °C,-1.76 ± 0.17
UCUUAGCAAUAUUACGGCGA,self-splicing fitness (ln),30 °C,-0.253 ± 0.15
same,self-splicing fitness (ln),37 °C,-0.295 ± 0.13
UCUUAGCAAUAUUACGGGAC,self-splicing fitness (ln),30 °C,-3.78 ± 0.24
same,self-splicing fitness (ln),37 °C,-1.8 ± 0.32
UCUUAGCAAUAUUACGGGCC,self-splicing fitness (ln),30 °C,-3.6 ± 0.32
same,self-splicing fitness (ln),37 °C,-1.41 ± 0.27
UCUUAGCAAUAUUACGGGGC,self-splicing fitness (ln),30 °C,-3.82 ± 0.3
same,self-splicing fitness (ln),37 °C,-3.03 ± 0.27
UCUUAGCAAUAUUACGUAAU,self-splicing fitness (ln),30 °C,-5 ± 0.45
same,self-splicing fitness (ln),37 °C,-2.58 ± 0.2
UCUUAGCAAUAUUACGUACG,self-splicing fitness (ln),30 °C,-1.58 ± 0.083
same,self-splicing fitness (ln),37 °C,-0.522 ± 0.088
UCUUAGCAAUAUUACGUCGU,self-splicing fitness (ln),30 °C,-2.2 ± 0.12
same,self-splicing fitness (ln),37 °C,-1.92 ± 0.12
UGAAAGCAAUAUUACGAACU,self-splicing fitness (ln),30 °C,-0.526 ± 0.088
same,self-splicing fitness (ln),37 °C,0.612 ± 0.1
UGAAAGCAAUAUUACGAAGG,self-splicing fitness (ln),30 °C,-2.92 ± 0.21
same,self-splicing fitness (ln),37 °C,-1.48 ± 0.25
UGAAAGCAAUAUUACGAAUC,self-splicing fitness (ln),30 °C,-3.58 ± 0.21
same,self-splicing fitness (ln),37 °C,-2.53 ± 0.21
UGAAAGCAAUAUUACGAUAU,self-splicing fitness (ln),30 °C,-2.68 ± 0.18
same,self-splicing fitness (ln),37 °C,-1.21 ± 0.13
UGAAAGCAAUAUUACGAUUC,self-splicing fitness (ln),30 °C,-2.53 ± 0.18
same,self-splicing fitness (ln),37 °C,-2 ± 0.22
UGAAAGCAAUAUUACGCACU,self-splicing fitness (ln),30 °C,-0.504 ± 0.094
same,self-splicing fitness (ln),37 °C,0.371 ± 0.11
UGAAAGCAAUAUUACGCCGA,self-splicing fitness (ln),30 °C,-1.61 ± 0.14
same,self-splicing fitness (ln),37 °C,-0.339 ± 0.14
UGAAAGCAAUAUUACGCCUA,self-splicing fitness (ln),30 °C,0.122 ± 0.093
same,self-splicing fitness (ln),37 °C,0.207 ± 0.098
UGAAAGCAAUAUUACGCGCG,self-splicing fitness (ln),30 °C,-0.237 ± 0.079
same,self-splicing fitness (ln),37 °C,-0.153 ± 0.1
UGAAAGCAAUAUUACGCGCU,self-splicing fitness (ln),30 °C,-0.84 ± 0.11
same,self-splicing fitness (ln),37 °C,0.297 ± 0.14
UGAAAGCAAUAUUACGCGGA,self-splicing fitness (ln),30 °C,-1.66 ± 0.13
same,self-splicing fitness (ln),37 °C,-1.52 ± 0.13
UGAAAGCAAUAUUACGCGGG,self-splicing fitness (ln),30 °C,-2.8 ± 0.13
same,self-splicing fitness (ln),37 °C,-0.83 ± 0.11
UGAAAGCAAUAUUACGCGGU,self-splicing fitness (ln),37 °C,-1.78 ± 0.36
UGAAAGCAAUAUUACGCGUA,self-splicing fitness (ln),30 °C,-1.31 ± 0.12
same,self-splicing fitness (ln),37 °C,-0.174 ± 0.13
UGAAAGCAAUAUUACGGAAG,self-splicing fitness (ln),30 °C,-1.78 ± 0.11
same,self-splicing fitness (ln),37 °C,-1.15 ± 0.14
UGAAAGCAAUAUUACGGCAA,self-splicing fitness (ln),30 °C,-0.125 ± 0.078
same,self-splicing fitness (ln),37 °C,0.497 ± 0.1
UGAAAGCAAUAUUACGGGCC,self-splicing fitness (ln),30 °C,-3.48 ± 0.23
same,self-splicing fitness (ln),37 °C,-1.32 ± 0.22
UGAAAGCAAUAUUACGGGCG,self-splicing fitness (ln),30 °C,-0.0565 ± 0.085
same,self-splicing fitness (ln),37 °C,0.348 ± 0.11
UGAAAGCAAUAUUACGGUCG,self-splicing fitness (ln),30 °C,0.0681 ± 0.051
same,self-splicing fitness (ln),37 °C,0.137 ± 0.067
UGAAAGCAAUAUUACGUAUG,self-splicing fitness (ln),30 °C,-1.53 ± 0.098
same,self-splicing fitness (ln),37 °C,-1.21 ± 0.14
UGAAAGCAAUAUUACGUCUU,self-splicing fitness (ln),30 °C,-1.69 ± 0.074
same,self-splicing fitness (ln),37 °C,-0.659 ± 0.073
UGAAAGCAAUAUUACGUGCG,self-splicing fitness (ln),30 °C,-0.35 ± 0.065
same,self-splicing fitness (ln),37 °C,-0.395 ± 0.073
UGAAAGCAAUAUUACGUGUA,self-splicing fitness (ln),30 °C,-1.5 ± 0.091
same,self-splicing fitness (ln),37 °C,-1.08 ± 0.11
UGACAGCAAUAUUACGAAAU,self-splicing fitness (ln),30 °C,-3.12 ± 0.19
same,self-splicing fitness (ln),37 °C,-2.74 ± 0.24
UGACAGCAAUAUUACGAAGG,self-splicing fitness (ln),30 °C,-3.84 ± 0.23
same,self-splicing fitness (ln),37 °C,-1.36 ± 0.17
UGACAGCAAUAUUACGAGGA,self-splicing fitness (ln),30 °C,-2.51 ± 0.16
same,self-splicing fitness (ln),37 °C,-3.06 ± 0.22
UGACAGCAAUAUUACGAUCC,self-splicing fitness (ln),30 °C,-0.422 ± 0.09
same,self-splicing fitness (ln),37 °C,0.083 ± 0.11
UGACAGCAAUAUUACGCAGU,self-splicing fitness (ln),30 °C,-2.63 ± 0.15
same,self-splicing fitness (ln),37 °C,-2.13 ± 0.27
UGACAGCAAUAUUACGCCCU,self-splicing fitness (ln),30 °C,0.0425 ± 0.16
same,self-splicing fitness (ln),37 °C,0.0969 ± 0.14
UGACAGCAAUAUUACGGACC,self-splicing fitness (ln),30 °C,-0.664 ± 0.12
same,self-splicing fitness (ln),37 °C,-0.748 ± 0.21
UGACAGCAAUAUUACGGCGC,self-splicing fitness (ln),30 °C,-2.47 ± 0.15
same,self-splicing fitness (ln),37 °C,-1.25 ± 0.15
UGACAGCAAUAUUACGGUUC,self-splicing fitness (ln),30 °C,-2.92 ± 0.11
same,self-splicing fitness (ln),37 °C,-1.79 ± 0.085
UGACAGCAAUAUUACGUAAG,self-splicing fitness (ln),30 °C,-1.2 ± 0.064
same,self-splicing fitness (ln),37 °C,-0.489 ± 0.067
UGACAGCAAUAUUACGUAUA,self-splicing fitness (ln),30 °C,-2.19 ± 0.092
same,self-splicing fitness (ln),37 °C,-0.776 ± 0.096
UGACAGCAAUAUUACGUUUG,self-splicing fitness (ln),30 °C,-2 ± 0.071
same,self-splicing fitness (ln),37 °C,-1.03 ± 0.081
UGAGAGCAAUAUUACGACCA,self-splicing fitness (ln),30 °C,-1.91 ± 0.14
same,self-splicing fitness (ln),37 °C,-1.14 ± 0.21
UGAGAGCAAUAUUACGAGGA,self-splicing fitness (ln),30 °C,-3.49 ± 0.34
same,self-splicing fitness (ln),37 °C,-2.83 ± 0.4
